Measurements reported in patent US20240317834A1, “COMPOSITIONS AND METHODS FOR NEUROLOGICAL DISEASES” (CODA BIOTHERAPEUTICS, INC., priority 2020, published 2024).

How the values were obtained:
Lenti-X 293T cells = test: YFP fluorescence quenching anion reporter plate reader assay of engineered receptors stimulated with acetylcholine or a non-native ligand; format: cell-based; conditions: for percent quench of YFP fluorescence, 30 nM TC-6683: TC-6683 30 nM; for percent quench of YFP fluorescence, 300 nM TC-6683: TC-6683 300 nM; for percent quench of YFP fluorescence, 3 uM TC-6683: TC-6683 3 uM; for percent quench of YFP fluorescence, 30 uM TC-6683: TC-6683 30 uM; for percent quench of YFP fluorescence, 100 uM TC-6683: TC-6683 100 uM; for percent quench of YFP fluorescence, 100 uM ach: acetylcholine 100 uM; for percent quench of YFP fluorescence, 300 uM ach: acetylcholine 300 uM; for percent quench of YFP fluorescence, 500 uM ach: acetylcholine 500 uM; for percent quench of YFP fluorescence, 1 mM ach: acetylcholine 1 mM; for percent quench of YFP fluorescence, 3 mM ach: acetylcholine 3 mM; for percent quench of YFP fluorescence, 10 mM ach: acetylcholine 10 mM
Procedure, shortened: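 Lenti-X 293T cells carrying a YFP anion reporter were transiently transfected with channel DNA and assayed the next day in HEPES-buffered ECS at pH 7.2. Ligand (acetylcholine or non-native ligand) was added in NaI-substituted ECS. Percent quench was the mean of the last 10 s relative to the 15 s pre-addition baseline.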

rat DRG neurons = test: Rheobase shift and evoked action potentials in rat DRG neurons (current clamp); format: cell-based; conditions: for Rheobase Shift; Rat DRG Neurons, Baseline: no ligand
Procedure, shortened: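 Rat DRG neurons expressing engineered receptors, whole-cell current clamp at RT. ECS at pH 7.3; K-gluconate internal at pH 7.2. 500 ms steps from −200 to 700 pA with and without ligand. Rheobase taken as the smallest depolarising step that fires an action potential; input resistance from negative steps.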

B1: CODA1054: engineered chimeric LGIC receptor, R101M, L131F in SEQ ID NO: 33 (protein)
chain: MRCSPGGVWLALAASLLHVSLQGEFQRKLYKELVKNYNPLERPVANDSQPLTVYFSLSLLQIMDVDEKNQVLTTNIWLQMSWTDHYLQWNVSEYPGVKTVMFPDGQIWKPDILLYNSADERFDATFHTNVFVNSSGHCQYLPPGIFKSSCPMDLKNFPMDVQTCKLKFGSWSYGGWSLDLQMQEADISGYIPNGEWDLVGIPGKRSERFYECCKEPYPDVTFTVTMRRRMGYYLIQMYIPSLLIVILSWISFWINMDAAPARVGLGITTVLTMTTQSSGSRASLPKVSYVKAIDIWMAVCLLFVFSALLEYAAVNFVSRQHKELLRFRRKRRHHKSPMLNLFQEDEAGEGRFNFSAYGMGPACLQAKDGISVKGANNSNTTNPPPAPSKSPEEMRKLFIQRAKKIDKISRIGFPMAFLIFNMFYWIIYKIVRREDVHNQ
modifications: synthetic sequence of chimeric LGIC
Question: Which results are given for B1?
Answer: YFP fluorescence quenching using CNL001 (Lenti-X 293T cells; 1 nM CNL001, first column): 21.932%; YFP fluorescence quenching using CNL001 (Lenti-X 293T cells; 1 nM CNL001, second column): 39.689%; YFP fluorescence quenching using TC-5619/Bradanicline (Lenti-X 293T cells; 1 nM brd): 6.609%; YFP fluorescence quenching using TC-5619/Bradanicline (Lenti-X 293T cells; 3 nM brd): −7.635%; YFP fluorescence quenching using Varenicline (Lenti-X 293T cells; 3 nM var, first column): 34.923; YFP fluorescence quenching using Varenicline (Lenti-X 293T cells; 3 nM var, second column): 28.944; YFP fluorescence quenching using CNL001 (Lenti-X 293T cells; 10 nM CNL001, first column): 54.192%; YFP fluorescence quenching using CNL001 (Lenti-X 293T cells; 10 nM CNL001, second column): 64.111%; YFP fluorescence quenching using TC-5619/Bradanicline (Lenti-X 293T cells; 10 nM brd): 4.459%; YFP fluorescence quenching using TC-5619/Bradanicline (Lenti-X 293T cells; 30 nM brd): 69.782%; YFP fluorescence quenching using Varenicline (Lenti-X 293T cells; 30 nM var, first column): 42.214; YFP fluorescence quenching using Varenicline (Lenti-X 293T cells; 30 nM var, second column): 43.015; YFP fluorescence quenching using CNL001 (Lenti-X 293T cells; 50 nM CNL001, first column): 71.409%; YFP fluorescence quenching using CNL001 (Lenti-X 293T cells; 50 nM CNL001, second column): 70.989%; YFP fluorescence quenching using ABT-126 (Lenti-X 293T cells; 50 nM abt): −19.54%; YFP fluorescence quenching using CNL001 (Lenti-X 293T cells; 100 nM CNL001, first column): 74.148%; YFP fluorescence quenching using CNL001 (Lenti-X 293T cells; 100 nM CNL001, second column): 71.722%; YFP fluorescence quenching using ABT-126 (Lenti-X 293T cells; 100 nM abt): −18.28%; YFP fluorescence quenching using TC-5619/Bradanicline (Lenti-X 293T cells; 100 nM brd): 77.633%; YFP fluorescence quenching using ABT-126 (Lenti-X 293T cells; 300 nM abt): −16.87%; YFP fluorescence quenching using TC-5619/Bradanicline (Lenti-X 293T cells; 300 nM brd): 72.933%; YFP fluorescence quenching using Varenicline (Lenti-X 293T cells; 300 nM var, first column): 47.059; YFP fluorescence quenching using Varenicline (Lenti-X 293T cells; 300 nM var, second column): 52.768; YFP fluorescence quenching using Varenicline (Lenti-X 293T cells; 500 nM var, first column): 59.542; YFP fluorescence quenching using Varenicline (Lenti-X 293T cells; 500 nM var, second column): 62.641; YFP fluorescence quenching using CNL001 (Lenti-X 293T cells; 1 uM CNL001, first column): 71.378%; YFP fluorescence quenching using CNL001 (Lenti-X 293T cells; 1 uM CNL001, second column): 71.411%; YFP fluorescence quenching using ABT-126 (Lenti-X 293T cells; 1 uM abt): −11.77%; YFP fluorescence quenching using Varenicline (Lenti-X 293T cells; 1 uM var, first column): 71.449; YFP fluorescence quenching using Varenicline (Lenti-X 293T cells; 1 uM var, second column): 69.145; percent quench of YFP fluorescence, 30 nM TC-6683 (Lenti-X 293T cells): −22.996%; percent quench of YFP fluorescence, 300 nM TC-6683 (Lenti-X 293T cells): −27.055%; percent quench of YFP fluorescence, 3 uM TC-6683 (Lenti-X 293T cells): −18.611%; percent quench of YFP fluorescence, 30 uM TC-6683 (Lenti-X 293T cells): −13.879%; percent quench of YFP fluorescence, 100 uM TC-6683 (Lenti-X 293T cells): −21.521%; percent quench of YFP fluorescence, 10 uM ach (Lenti-X 293T cells; acetylcholine 10 uM): −3.98%; percent quench of YFP fluorescence, 100 uM ach (Lenti-X 293T cells): −10.34%; percent quench of YFP fluorescence, 300 uM ach (Lenti-X 293T cells): −10.25%; percent quench of YFP fluorescence, 500 uM ach (Lenti-X 293T cells): −11.46%; percent quench of YFP fluorescence, 1 mM ach (Lenti-X 293T cells): 1.77%; percent quench of YFP fluorescence, 3 mM ach (Lenti-X 293T cells): 36.81%; percent quench of YFP fluorescence, 10 mM ach (Lenti-X 293T cells): 74.02%; Rheobase Shift; Rat DRG Neurons, +TC-5619 @ EC90 (rat DRG neurons): 673 ± 27 pA; Rheobase Shift; Rat DRG Neurons, Baseline (rat DRG neurons): 105 ± 13 pA

B2: CODA1055: engineered chimeric LGIC receptor, R101W, Y115E, Y210W in SEQ ID NO: 33 (protein)
chain: MRCSPGGVWLALAASLLHVSLQGEFQRKLYKELVKNYNPLERPVANDSQPLTVYFSLSLLQIMDVDEKNQVLTTNIWLQMSWTDHYLQWNVSEYPGVKTVWFPDGQIWKPDILLENSADERFDATFHTNVLVNSSGHCQYLPPGIFKSSCPMDLKNFPMDVQTCKLKFGSWSYGGWSLDLQMQEADISGYIPNGEWDLVGIPGKRSERFWECCKEPYPDVTFTVTMRRRMGYYLIQMYIPSLLIVILSWISFWINMDAAPARVGLGITTVLTMTTQSSGSRASLPKVSYVKAIDIWMAVCLLFVFSALLEYAAVNFVSRQHKELLRFRRKRRHHKSPMLNLFQEDEAGEGRFNFSAYGMGPACLQAKDGISVKGANNSNTTNPPPAPSKSPEEMRKLFIQRAKKIDKISRIGFPMAFLIFNMFYWIIYKIVRREDVHNQ
modifications: synthetic sequence of chimeric LGIC
Question: Which results are given for B2?
Answer: YFP fluorescence quenching using CNL001 (Lenti-X 293T cells; 1 nM CNL001, first column): −12.889%; YFP fluorescence quenching using CNL001 (Lenti-X 293T cells; 1 nM CNL001, second column): −13.295%; YFP fluorescence quenching using TC-5619/Bradanicline (Lenti-X 293T cells; 1 nM brd): −8.113%; YFP fluorescence quenching using TC-5619/Bradanicline (Lenti-X 293T cells; 3 nM brd): −11.136%; YFP fluorescence quenching using Varenicline (Lenti-X 293T cells; 3 nM var, first column): 0.468; YFP fluorescence quenching using Varenicline (Lenti-X 293T cells; 3 nM var, second column): −10.015; YFP fluorescence quenching using CNL001 (Lenti-X 293T cells; 10 nM CNL001, first column): −10.401%; YFP fluorescence quenching using CNL001 (Lenti-X 293T cells; 10 nM CNL001, second column): −7.981%; YFP fluorescence quenching using TC-5619/Bradanicline (Lenti-X 293T cells; 10 nM brd): 38.755%; YFP fluorescence quenching using TC-5619/Bradanicline (Lenti-X 293T cells; 30 nM brd): 39.111%; YFP fluorescence quenching using Varenicline (Lenti-X 293T cells; 30 nM var, first column): −15.532; YFP fluorescence quenching using Varenicline (Lenti-X 293T cells; 30 nM var, second column): −14.462; YFP fluorescence quenching using CNL001 (Lenti-X 293T cells; 50 nM CNL001, first column): −1.972%; YFP fluorescence quenching using CNL001 (Lenti-X 293T cells; 50 nM CNL001, second column): −1.661%; YFP fluorescence quenching using ABT-126 (Lenti-X 293T cells; 50 nM abt): −21.36%; YFP fluorescence quenching using CNL001 (Lenti-X 293T cells; 100 nM CNL001, first column): 0.277%; YFP fluorescence quenching using CNL001 (Lenti-X 293T cells; 100 nM CNL001, second column): 4.325%; YFP fluorescence quenching using ABT-126 (Lenti-X 293T cells; 100 nM abt): −22.28%; YFP fluorescence quenching using TC-5619/Bradanicline (Lenti-X 293T cells; 100 nM brd): 61.378%; YFP fluorescence quenching using ABT-126 (Lenti-X 293T cells; 300 nM abt): −14.63%; YFP fluorescence quenching using TC-5619/Bradanicline (Lenti-X 293T cells; 300 nM brd): 52.398%; YFP fluorescence quenching using Varenicline (Lenti-X 293T cells; 300 nM var, first column): −17.027; YFP fluorescence quenching using Varenicline (Lenti-X 293T cells; 300 nM var, second column): −15.59; YFP fluorescence quenching using Varenicline (Lenti-X 293T cells; 500 nM var, first column): −13.343; YFP fluorescence quenching using Varenicline (Lenti-X 293T cells; 500 nM var, second column): −10.702; YFP fluorescence quenching using CNL001 (Lenti-X 293T cells; 1 uM CNL001, first column): 2.88%; YFP fluorescence quenching using CNL001 (Lenti-X 293T cells; 1 uM CNL001, second column): 3.259%; YFP fluorescence quenching using ABT-126 (Lenti-X 293T cells; 1 uM abt): −7.34%; YFP fluorescence quenching using Varenicline (Lenti-X 293T cells; 1 uM var, first column): −6.604; YFP fluorescence quenching using Varenicline (Lenti-X 293T cells; 1 uM var, second column): −7.612; percent quench of YFP fluorescence, 30 nM TC-6683 (Lenti-X 293T cells): −30.056%; percent quench of YFP fluorescence, 300 nM TC-6683 (Lenti-X 293T cells): −30.801%; percent quench of YFP fluorescence, 3 uM TC-6683 (Lenti-X 293T cells): −25.558%; percent quench of YFP fluorescence, 30 uM TC-6683 (Lenti-X 293T cells): −18.295%; percent quench of YFP fluorescence, 100 uM TC-6683 (Lenti-X 293T cells): −17.554%; percent quench of YFP fluorescence, 100 uM ach (Lenti-X 293T cells): −15.63%; percent quench of YFP fluorescence, 300 uM ach (Lenti-X 293T cells): −12.05%; percent quench of YFP fluorescence, 500 uM ach (Lenti-X 293T cells): −12.87%; percent quench of YFP fluorescence, 1 mM ach (Lenti-X 293T cells): −11.55%; percent quench of YFP fluorescence, 3 mM ach (Lenti-X 293T cells): 12.68%; percent quench of YFP fluorescence, 10 mM ach (Lenti-X 293T cells): 37.58%; Rheobase Shift; Rat DRG Neurons, +TC-5619 @ EC90 (rat DRG neurons): 562 ± 35 pA; Rheobase Shift; Rat DRG Neurons, Baseline (rat DRG neurons): 83 ± 7 pA
